The values below come from paper PMC3319868.

Like-named read-outs stand apart in the source and are kept apart here.

The target in series [1] is T1, HIF-1α;ARNT (HIF-1β) (human;human?, UniProt Q16665;P27540 1-826;1-789, |). In words: competition.
Series [2] deals with T1, HIF-1α;ARNT (HIF-1β). In words: competition. This is another data set of the same source.

T1 sequence (Q16665 whole entry, chain 1 of 2): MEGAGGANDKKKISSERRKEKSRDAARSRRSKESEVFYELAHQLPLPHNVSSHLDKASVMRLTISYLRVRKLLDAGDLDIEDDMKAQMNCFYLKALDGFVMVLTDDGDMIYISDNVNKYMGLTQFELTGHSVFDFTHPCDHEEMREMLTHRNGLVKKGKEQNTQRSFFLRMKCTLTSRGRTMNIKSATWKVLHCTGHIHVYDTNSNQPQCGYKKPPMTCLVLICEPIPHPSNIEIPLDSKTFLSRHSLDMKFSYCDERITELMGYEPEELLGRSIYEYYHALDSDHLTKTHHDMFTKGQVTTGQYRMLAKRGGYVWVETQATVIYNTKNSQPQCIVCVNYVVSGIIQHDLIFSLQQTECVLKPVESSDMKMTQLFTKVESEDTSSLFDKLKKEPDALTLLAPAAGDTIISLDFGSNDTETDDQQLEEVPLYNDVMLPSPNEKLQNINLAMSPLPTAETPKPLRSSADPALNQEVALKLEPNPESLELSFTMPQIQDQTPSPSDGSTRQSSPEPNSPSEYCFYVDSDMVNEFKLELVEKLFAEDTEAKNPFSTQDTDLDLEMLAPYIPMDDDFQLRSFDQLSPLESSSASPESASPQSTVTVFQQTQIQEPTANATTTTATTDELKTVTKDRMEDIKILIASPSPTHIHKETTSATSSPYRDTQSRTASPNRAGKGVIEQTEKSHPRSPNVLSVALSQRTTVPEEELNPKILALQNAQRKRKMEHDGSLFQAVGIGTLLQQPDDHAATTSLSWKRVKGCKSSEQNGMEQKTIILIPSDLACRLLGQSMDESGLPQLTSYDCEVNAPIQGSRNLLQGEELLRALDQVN
T1 sequence (P27540 whole entry, chain 2 of 2): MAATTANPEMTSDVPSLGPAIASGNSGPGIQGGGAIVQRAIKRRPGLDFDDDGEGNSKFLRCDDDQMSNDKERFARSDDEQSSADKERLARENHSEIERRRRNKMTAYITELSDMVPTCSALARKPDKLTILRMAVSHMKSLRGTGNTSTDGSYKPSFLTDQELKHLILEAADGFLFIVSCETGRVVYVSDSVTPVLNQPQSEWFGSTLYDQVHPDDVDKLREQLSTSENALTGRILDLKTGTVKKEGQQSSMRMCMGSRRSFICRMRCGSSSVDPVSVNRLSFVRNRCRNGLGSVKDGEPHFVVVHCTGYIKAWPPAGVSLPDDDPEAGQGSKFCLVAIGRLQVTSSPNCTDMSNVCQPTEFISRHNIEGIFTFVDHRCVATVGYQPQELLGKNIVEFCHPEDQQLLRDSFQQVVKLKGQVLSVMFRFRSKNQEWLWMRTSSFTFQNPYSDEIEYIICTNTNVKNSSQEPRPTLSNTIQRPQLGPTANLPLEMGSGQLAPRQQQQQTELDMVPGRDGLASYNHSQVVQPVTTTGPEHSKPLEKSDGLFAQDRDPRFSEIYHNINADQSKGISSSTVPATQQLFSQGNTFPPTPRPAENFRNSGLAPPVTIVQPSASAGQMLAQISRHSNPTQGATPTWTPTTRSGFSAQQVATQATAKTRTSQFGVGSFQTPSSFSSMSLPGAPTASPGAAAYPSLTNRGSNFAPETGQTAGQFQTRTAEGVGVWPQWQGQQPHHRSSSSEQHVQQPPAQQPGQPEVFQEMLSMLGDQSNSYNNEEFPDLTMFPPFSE

B1: wild type HRE (OL568/OL569) (dsDNA)
DNA 1: AGCTTGCCCTACGTGCTGTCTCAGA
DNA 2: TCTGAGACAGCACGTAGGGCAAGCT
In the case of B1, the binding result in the series with HIF-1α;ARNT (HIF-1β) [1] is on record as “binds”.

B2: mutated HRE (OL570/OL571) (dsDNA)
DNA 1: AGCTTGCCCTAGCTGCTGTCTCAGA
DNA 2: TCTGAGACAGCAGCTAGGGCAAGCT
Turning to B2, the binding result in the series with HIF-1α;ARNT (HIF-1β) [2] is given as “no binding”.
